In article PMC4872217, “Structural and functional insights into the E3 ligase, RNF126” (Scientific Reports, 2016):
Numbering of substitutions follows the chain as printed. Names may count otherwise.

B1: UBL4A_UBL (UBL domain of UBL4A, residues 1-74) (domain or fragment, UniProt P11441 1-74, looked up)
chain: MQLTVKALQGRECSLQVPEDELVSTLKQLVSEKLNVPVRQQRLLFKGKALADGKRLSDYSIGPNSKLNLVVKPL
notes: UBL4A (ubiquitin-like protein 4A), UBL domain, residues 1-74; source: E. coli Rosetta, purified
B2: BAG6_UBL (UBL domain of BAG6, residues 17-101) (domain or fragment, UniProt P46379 17-101, looked up)
chain: LEVLVKTLDSQTRTFIVGAQMNVKEFKEHIAASVSIPSEKQRLIYQGRVLQDDKKLQEYNVGGKVIHLVERAPPQTHLPSGASSG
notes: BAG6 (BCL2-associated athanogene 6), UBL domain, residues 17-101; The general purification protocol describes TEV cleavage; also called BAG6 UBL domain; source: E. coli BL21 (DE3), purified
B3: RNF126_NZF (RNF126 N-terminal zinc finger domain, residues 1-40) (domain or fragment, human, UniProt Q9BV68 1-40, looked up)
chain: MAEASPHPGRYFCHCCSVEIVPRLPDYICPRCESGFIEEL
notes: RNF126, human, residues 1-40 (N-terminal zinc finger); 15N- or 15N,13C-labelled where it was the observed protein in NMR; Cultures were supplemented with 10 uM ZnCl2; also called RNF126 1-40; not shown: thioredoxin A, N-terminal, cleaved; His6, N-terminal, cleaved
B4: RNF126_NZF F36A mutant (domain or fragment, human, UniProt Q9BV68 1-40, looked up)
chain: B3 chain with F36A
notes: RNF126, human, residues 1-40, with F36A; Made by PCR mutagenesis on pET28-GFP-RNF126 (1-40); in the native PAGE the mutants were GFP tagged; also called Phe36/Ala; source: E. coli BL21 (DE3), purified
B5: RNF126_NZF H14A mutant (domain or fragment, human, UniProt Q9BV68 1-40, looked up)
chain: B3 chain with H14A
notes: RNF126, human, residues 1-40, with H14A; Made by PCR mutagenesis on pET28-GFP-RNF126 (1-40); in the native PAGE the mutants were GFP tagged; also called His14/Ala; source: E. coli BL21 (DE3), purified

Tests used:
[1] = target: T1, RNF126 N-terminal region (residues 1-100) (human, UniProt Q9BV68 1-100); experiment: NMR titration; unlabelled protein titrated into 15N-labelled protein, 1H-15N HSQC chemical shift perturbation; 25 °C; 10 mM potassium phosphate pH 6.0, 100 mM NaCl, 250 μM TCEP; for RNF126_NZF into UBL4A_UBL fitted with DynaFit to a 1:1 model; settings: both partners purified
T1 construct: RNF126, human, residues 1-100; also called RNF126 1-100; RNF126_NT (1-100); not shown: thioredoxin A, N-terminal, cleaved; His6, N-terminal, cleaved

[2] = target: B3; experiment: as above; settings: both partners purified
[3] = target: T2, SGTA_NT (N-terminal SGTA, residues 1-86) (human, UniProt O43765 1-86); experiment: as above; settings: both partners purified
T2 construct: SGTA (small glutamine-rich tetratricopeptide repeat-containing protein alpha), human, residues 1-86; Only the 1-86 construct is described in the methods; not shown: thioredoxin A, N-terminal, cleaved; His6, N-terminal, cleaved
T2 sequence (O43765 1-86): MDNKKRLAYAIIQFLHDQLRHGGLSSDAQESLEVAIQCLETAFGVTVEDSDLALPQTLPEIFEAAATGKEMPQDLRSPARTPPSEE

[4] = target: UBL4A_UBL (UBL domain of UBL4A, residues 1-74) (UniProt P11441); experiment: as above
[5] = target: B2; experiment: ITC; 500 μM RNF126_NZF (wild-type or mutant) injected into 50 μM BAG6_UBL in the cell; 25 °C; 10 mM potassium phosphate pH 6.0, 100 mM NaCl, 250 μM TCEP; settings: both partners purified

Row | Binder | binding result [1] | Kd [5] [µM] | other results
1 | B1 | binds | – | –
2 | B2 | binds | – | stoichiometry N [2]: ~1 molar ratio; binding result [3]: binds
3 | B3 | – | 0.4 ± 0.05 | Kd [4]: 16.6 µM; dH [5]: -18.91 ± 0.167 kJ/mol; stoichiometry N [5]: 1
4 | B4 | – | 5 ± 0.3 | –
5 | B5 | – | > 50 | –
